Source: patent US5624818, “Nucleic acids encoding regulatory proteins that dimerize with Mad or Max” (Fred Hutchinson Cancer Research Center)

Assays:
[1] = biological target: Mad-1-His6 full length (Homo sapiens, UniProt Q05195 SEQ:1-221); test: EMSA; no Max present; conditions: tags: C-terminal His6 (pET11D); label: 32P
[2] = biological target: c-Myc:Max heterodimer (Homo sapiens, UniProt P01106-1;P61244-2 P01106-1:1-439,P61244-2:1-151); test: EMSA; supershifted by anti-Myc and anti-Max; 3 mM MgCl2, 50 mM KCl, RT; 5-fold excess cold CM-1 competes; conditions: label: 32P
Chain of c-Myc:Max heterodimer (P01106 16-454, chain 1 of 2): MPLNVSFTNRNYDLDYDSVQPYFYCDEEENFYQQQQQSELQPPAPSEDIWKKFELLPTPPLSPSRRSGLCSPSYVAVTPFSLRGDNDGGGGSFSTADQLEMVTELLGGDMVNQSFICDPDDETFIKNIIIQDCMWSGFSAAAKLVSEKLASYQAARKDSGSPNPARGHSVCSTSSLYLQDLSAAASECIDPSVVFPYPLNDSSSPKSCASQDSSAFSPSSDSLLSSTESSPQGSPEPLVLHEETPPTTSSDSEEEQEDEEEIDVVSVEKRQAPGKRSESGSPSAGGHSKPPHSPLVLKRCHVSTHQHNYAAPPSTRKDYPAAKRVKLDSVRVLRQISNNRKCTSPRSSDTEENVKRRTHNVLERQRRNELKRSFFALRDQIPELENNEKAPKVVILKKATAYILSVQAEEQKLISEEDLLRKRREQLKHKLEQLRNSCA
Chain of c-Myc:Max heterodimer (P61244 other isoform, or with tags, fused parts or gaps, chain 2 of 2): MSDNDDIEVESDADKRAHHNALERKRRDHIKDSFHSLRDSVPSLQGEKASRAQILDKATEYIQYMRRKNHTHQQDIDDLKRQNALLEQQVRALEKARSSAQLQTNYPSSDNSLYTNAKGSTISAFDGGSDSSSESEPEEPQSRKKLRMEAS

[3] = biological target: c-Myc deltaN100:Max (Homo sapiens, UniProt P01106-1;P61244-2 P01106-1:101-439,P61244-2:1-151, c-Myc deletion of N-terminal 100 aa); test: EMSA; conditions: label: 32P
Chain of c-Myc deltaN100:Max (P01106 116-454, stated change not applied, chain 1 of 2): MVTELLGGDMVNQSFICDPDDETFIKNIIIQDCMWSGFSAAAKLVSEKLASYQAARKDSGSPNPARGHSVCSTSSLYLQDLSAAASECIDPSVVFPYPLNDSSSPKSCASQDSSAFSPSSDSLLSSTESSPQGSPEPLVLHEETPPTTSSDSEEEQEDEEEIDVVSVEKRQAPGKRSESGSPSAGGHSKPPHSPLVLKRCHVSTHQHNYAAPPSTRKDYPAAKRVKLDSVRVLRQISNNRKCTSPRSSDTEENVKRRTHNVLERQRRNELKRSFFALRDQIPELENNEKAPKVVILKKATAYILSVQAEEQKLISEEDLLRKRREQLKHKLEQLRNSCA
Chain of c-Myc deltaN100:Max (P61244 other isoform, or with tags, fused parts or gaps c-Myc deletion of N-terminal 100 aa | mutant, chain 2 of 2): as the sequence (P61244 other isoform, or with tags, fused parts or gaps, chain 2 of 2) above

[4] = biological target: GST-C92Myc:Max heterodimer (Homo sapiens, UniProt P01106;P61244-2 P01106:363-454,P61244-2:1-151); test: EMSA; heterodimer favored over Max:Max; conditions: tags: GST on Myc; label: 32P
Chain of GST-C92Myc:Max heterodimer (P01106 363-454, chain 1 of 2): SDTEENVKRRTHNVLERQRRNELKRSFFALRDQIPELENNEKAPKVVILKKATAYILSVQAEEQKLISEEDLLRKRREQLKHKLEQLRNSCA
Chain of GST-C92Myc:Max heterodimer (P61244 other isoform, or with tags, fused parts or gaps, chain 2 of 2): as the sequence (P61244 other isoform, or with tags, fused parts or gaps, chain 2 of 2) above

Chain of Mad-1-His6 full length (Q05195 whole entry): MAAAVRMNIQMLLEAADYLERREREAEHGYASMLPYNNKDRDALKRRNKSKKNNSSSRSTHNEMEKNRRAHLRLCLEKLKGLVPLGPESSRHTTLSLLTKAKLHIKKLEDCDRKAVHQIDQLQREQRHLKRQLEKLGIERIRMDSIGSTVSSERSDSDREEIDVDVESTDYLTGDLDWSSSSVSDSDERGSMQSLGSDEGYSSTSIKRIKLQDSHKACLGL

B1: CM-1 (dsDNA)
DNA 1: CCCCCACCACGTGGTGCCTGA
DNA 2: TCAGGCACCACGTGGTGGGGG
B1: no binding [1]; binds [2]; binds [3]. B1: binds [4].
